Experimental data: patent US20180243432A1

Target: human HLA-A2 MHC class I molecule on the surface of target cells with no C2 epitope-peptide delivered or added (human)
Assay: flow cytometry, TCR STAR multimer staining of untreated (buffer only) target cells

For “TCR CMV-pp65-PE STAR multimer reagent (Altor Bioscience Corp.)”, the percent of cells stained was less than 5%.
